Measurements reported in FireProtDB (doi:10.1021/bi00444a012).

Conditions: Bacillus amyloliquefaciens; pH 8; Thermal; DSC; Tris-HCl 5.0 mM; KCl 50 mM; reversible: yes; whole UniProt chain shown

B1: Subtilisin BPN' wild type, P00782 (protein)
chain: MRGKKVWISLLFALALIFTMAFGSTSSAQAAGKSNGEKKYIVGFKQTMSTMSAAKKKDVISEKGGKVQKQFKYVDAASATLNEKAVKELKKDPSVAYVEEDHVAHAYAQSVPYGVSQIKAPALHSQGYTGSNVKVAVIDSGIDSSHPDLKVAGGASMVPSETNPFQDNNSHGTHVAGTVAALNNSIGVLGVAPSASLYAVKVLGADGSGQYSWIINGIEWAIANNMDVINMSLGGPSGSAALKAAVDKAVASGVVVVAAAGNEGTSGSSSTVGYPGKYPSVIAVGAVDSSNQRASFSSVGPELDVMAPGVSIQSTLPGNKYGAYNGTSMASPHVAGAAALILSKHPNWTNTQVRSSLENTTTKLGDSFYYGKGLINVQAAAQ
  Tm: 58.5 °C
  heat capacity change of unfolding: 4.8 kcal/mol/K
  unfolding enthalpy (calorimetric): 88.3 kcal/mol
  unfolding enthalpy (van 't Hoff): 97 kcal/mol
